Experimental data published in patent US20100209426A1, “INHIBITORS OF PROGASTRIN-INDUCED REPRESSION OF ICAT FOR TREATING AND/OR PREVENTING COLORECTAL CANCER, ADENOMATOUS POLYPOSIS OR METASTASIS DISPLAYING PROGASTRIN-SECRETING CELLS AND CELLS IN WHICH THE BETA-CATENIN/TCF-MEDIATED TRANSCRIPTIONAL PATHWAY IS CONSTITUTIVELY ACTIVE” (INSERM (INSTITUT NATIONAL DE LA SANTE ET DE LA REC HERCHE …, priority 2006, published 2010).
Where no end group is shown, it is not given here.

Assays:
[1] = system: β-catenin/Tcf-4 transcriptional activity; assay: TOP/FOP Luciferase reporter gene assay in SW480 cells; assay type: cell-based
Procedure: The protocol used to measure the transcriptional activity of TCF/LEF-1 was described before (Morin et al., 1997). Briefly, cells were transfected with 500 ng of TCF/LEF-1 reporter (pTOP-FLASH), or control vector (pFOP-FLASH) and with 25 ng pCMV-Renilla. Luciferase activity was quantified using the Dual luciferase reporter assay system (Promega), and was normalized relative to the activity of Renilla.

[2] = system: ICAT; assay: ICAT expression in SW480 cells (RT-QPCR, immunoblotting); assay type: cell-based, human
Procedure: (§1) 2.5 μg of total RNA was pretreated with DNAse RQ1 (Promega) for 30 min at 37° C. and used for reverse transcription with M-MLV reverse transcriptase (In vitrogen). Quantitative PCR was carried out using the LightCycler FastStart DNA MasterPlus SYBR Green I kit (Roche Diagnostics, Meylan, France), under the following conditions: Actin: denaturation during 10 min at 95° C., amplification for 50 cycles: 10 sec at 95° C., 6 sec at 58° C., 11 sec at 72° C. Melting curve: 0 sec at 95° C., 30 sec at 68° C., 0 sec at 95° C. and cooling was for 2 min at 40° C.: c-myc, ILK, chromogranin A and GAPDH amplification: denaturation during 10 min at 95° C., amplification for 50 cycles: 10 sec at 70° C., 6 sec at 58° C., 13 sec at 72° C. The melting curve was 0 sec at 95° C., 30 sec at 80° C., 0 sec at 95° C. and cooling was for 2 min at 40° C. Progastrin, Muc-2, ALP and ICAT amplification: denaturation during 10 min at 95° C., amplification during 50 cycles with: 10 sec at 70° C., 6 sec at 95° C., 11 sec at 72° C. The melting curve was 0 sec at 95° C., 30 sec at 80° C., 0 sec at 70° C. and cooling was for 2 min at 40° C. […]
(§2) Protein lysates, immunoprecipitations and immunoblotting were performed as described before (Hollande et al., 2003) Proteins were visualized using ECL Plus (Amersham Biosciences) and the bands were quantified by densitometry using ImageJ 1.32J (NIH, Bethesda, Md.).

[3] = system: SW480 cells; assay: Differentiation and apoptosis of SW480 cells after transient siRNA transfection; assay type: cell-based, human
Procedure: The day before transfection, SW480 cells were seeded in 24-well plates (5×10^4 cells/well). Cells were transfected with 100 pmol of rhodamine tagged GAS-specific or β-galactosidase-specific […], and 5 μl/well of Exgen 500 (Euromedex), according to the manufacturer's instructions. 48 hr or 72 hr after transfection, cells were lysed (for immunoblotting and PCR) or fixed in 1% paraformaldehyde for immunostaining.
2.5 μg of total RNA was pretreated with DNAse RQ1 (Promega) for 30 min at 37° C. and used for reverse transcription with M-MLV reverse transcriptase (In vitrogen). Quantitative PCR was carried out using the LightCycler FastStart DNA MasterPlus SYBR Green I kit (Roche Diagnostics, Meylan, France), under the following conditions: Actin: denaturation during 10 min at 95° C., amplification for 50 cycles: 10 sec at 95° C., 6 sec at 58° C., 11 sec at 72° C. Melting curve: 0 sec at 95° C., 30 sec at 68° C., 0 sec at 95° C. and cooling was for 2 min at 40° C.: c-myc, ILK, chromogranin A and GAPDH amplification: denaturation during 10 min at 95° C., amplification for 50 cycles: 10 sec at 70° C., 6 sec at 58° C., 13 sec at 72° C. The melting curve was 0 sec at 95° C., 30 sec at 80° C., 0 sec at 95° C. and cooling was for 2 min at 40° C. Progastrin, Muc-2, ALP and ICAT amplification: denaturation during 10 min at 95° C., amplification during 50 cycles with: 10 sec at 70° C., 6 sec at 95° C., 11 sec at 72° C. The melting curve was 0 sec at 95° C., 30 sec at 80° C., 0 sec at 70° C. and cooling was for 2 min at 40° C. Primers used for amplification of selected genes were: GAPDH-sense: 5′[…]3′ (SEQ ID No 9) antisense: 5′[…]3′ (SEQ ID No 10); Actin-sense: 5′[…]3′ (SEQ ID No 11); antisense: 5′[…]3′ (SEQ ID No 12); ILK-sense: 5′[…]3′ (SEQ ID No 13); antisense: 5′ […]3′ (SEQ ID No 14); ICAT-sense: 5′[…]3′ (SEQ ID No 15); antisense: 5′[…]3′ (SEQ ID No 16); c-myc-sense: 5′[…]3′ (SEQ ID No 17); antisense: 5′[…]3′ (SEQ ID No 18); human progastrin-sense: 5′[…]3′ (SEQ ID No 19); antisense: 5′[…]3′ (SEQ ID No 20); Muc-2-sense: 5′[…]3′ (SEQ ID No 21); antisense: 5′[…]3′ (SEQ ID No 22); Alkaline Phosphatase-sense: 5′[…]3′ (SEQ ID No 23); antisense: 5′[…]3′ (SEQ ID No 24); Chromogranin A-sense: 5′[…]3′ (SEQ ID No 25); antisense: 5′[…]3′ (SEQ ID No 26).
(§3) Immunofluorescent staining was performed as described previously (Hollande et al., 2003) Slides were then observed using a laser scanning LEICA sp2 confocal microscope with a x40 oil immersion lens.

[4] = system: SW480 cells; assay: Tumor formation of SW480 cells injected subcutaneously in BALB/c nude mice; assay type: in vivo, mouse; details: SW480/GAST(−) cells stably expressing shRNA, subcutaneous injection in Balbc/nude mice, within 7 weeks, versus SW480/βgal(−)
From the text: Transfection of gastrin gene antisense and control cDNA into DLD1 cell lines was described in (Hollande et al., 2003). In order to generate progastrin shRNA, the following oligonucleotides were cloned into pSilencer vector (Ambion) and transfected in SW480 cells: sense: 5′-[…] TT-3′ (SEQ ID No 1) and antisense: 5′-[…] 3′ (SEQ ID No 2). β-galactosidase oligonucleotides used to generate control shRNA were: sense: 5′ […] 3′ (SEQ ID No 3); antisense 5′[…] 3′ (SEQ ID No 4). 5×10^4 cells/well were seeded and transfected 24 h later with 500 ng of pSilencer/progastrin-shRNA or pSilencer/β-galactosidase-shRNA, 50 ng of pcDNA-3, and 5 μl/well of Exgen 500 (Euromedex). Selection was performed with Neomycin (500 ng/μl).
In vivo experiments were performed following the French guidelines for experimental animal studies (Direction des Services Vétérinaires, Ministére de l'Agriculture, Agreement N^oB34-172-27) and fulfill the UKCCCR guidelines for the welfare of animals in experimental neoplasia. 2×10^6 cells were injected subcutaneously into 6-weeks-old athymic BALB/c-nu/nu (nude) mice. Tumor growth was followed regularly thereafter (Estimated tumor volume=(Length×width×thickness)/2).

[5] = system: Tcf-4 target genes (c-myc, cyclin D1, Sox-9 and claudin-1); assay: Expression of Tcf-4 target genes in SW480/GAST(−) cells; assay type: cell-based, human; details: progastrin-depleted SW480/GAST(−) cells, treatment with the recombinant peptide (5 nM, 72 h)
Procedure: as §1, §2

[6] = system: Akt/PKB; assay: Ser473 phosphorylation of Akt/PKB in SW480 cells (Western blotting); assay type: cell-based, human; details: SW480/GAST(−) cells, 5 nM recombinant progastrin
Procedure: as §2

[7] = system: ILK; assay: ILK expression and immune complex kinase assay in SW480 cells; assay type: cell-based, human; details: SW480/GAST(−) cells, 5 nM recombinant progastrin
Procedure: as §2
The reaction was started by the addition of 25 μl of kinase buffer (50 mM Hepes pH 7.0, 1 mM MnCl2, 1 mM Na orthovanadate, 2 mM NaF, 5 μg Myelin Basic Protein (Sigma)) with 0.5 μg of ATP ([…], 1 μCi[γ-^32P]ATP) per tube, and incubated at 30° C. for 20 min. The reaction was terminated with the addition of 10 μl of 4× sample buffer. The tubes were centrifuged at 10,000 g for 1 min and the proteins were resolved on a 14% SDS-page gel. Phosphorylation of the substrate was visualized by autoradiography (Marotta et al., 2003).

[8] = system: nuclear compartmentation of β-catenin and Tcf-4; assay: Immunofluorescent staining of β-catenin and Tcf-4 in SW480 cells; assay type: cell-based, human; details: SW480/GAST(−) cells, 5 nM recombinant progastrin
Procedure: as §3

[9] = system: β-catenin/Tcf-4 and β-catenin/ICAT association; assay: Co-immunoprecipitation of dephosphorylated β-catenin with Tcf-4 and ICAT in SW480 cells; assay type: cell-based, human; details: SW480/GAST(−) cells treated with recombinant progastrin
Procedure: as §2

[10] = treatment of CRC cells with short gastrin forms or CCK-B receptor antagonist (FIG. S2)
[11] = transient transfection with siRNA
[12] = amidated and glycine-extended gastrins

`Cc1cccc(NC(=O)N[C@@H]2N=C(c3ccccc3)c3ccccc3N(C)C2=O)c1` [L365, 260] was tested, and the β-catenin/Tcf-4 activity [1, 10] was “did not affect”.

In the case of `COc1cccc(-c2cc(=O)c3ccccc3o2)c1N` [PD98059], the β-catenin/Tcf-4 activity ([1]; SW480 cells, 1 μM PD98059 (ERK1/2 pathway inhibition)) is reported as “did not affect” and the ICAT expression ([2]; SW480 cells, 1 μM PD98059) is reported as “did not affect”.

With `CC(C)(C)n1nc(-c2ccc(Cl)cc2)c2c(N)ncnc21` [PP2] the β-catenin/Tcf-4 activity ([1]; SW480 cells, 10 μM PP2 (Src pathway inhibition)) was “did not affect” and the ICAT expression ([2]; SW480 cells, 10 μM PP2) was “did not affect”.

For “GAST-specific siRNA oligonucleotides: rhodamine-tagged siRNA directed against the human GAST gene; siRNAs hPG sense 5′-GAAGAAGCCUAUGGAUGGATT-3′ (SEQ ID No 27), antisense SEQ ID No 28 (antisense UCCAUCCAUAGGCUUCUUCTT; rhodamine-tagged siRNA, tag position not given here)”, the caspase-3 activation [3, 11] was “detection of caspase-3 activation”, the “expression of genes encoding chromogranin A or enterocyte-specific alkaline phosphatase” value [3, 11] was “without detectable alterations” and the “expression of the goblet cell-specific gene Muc-2” value ([3]; transient transfection with siRNA, versus β-galactosidase siRNA) was “significant induction”.

In the case of “amidated gastrin17: COOH terminally amidated gastrin, maturation product of progastrin (QGPWLEEEEEAYGWMDF-NH2; ends and bridges not checked) [reference compound]”, the β-catenin/Tcf-4 activity [1, 10] is reported as “did not affect” and the “differentiation and apoptosis phenotypes of GAST siRNA-transfected cells” value (from here on “differentiation and apoptosis phenotypes”) [3, 12] is reported as “had no effect”.

B1: short hairpin RNA (shRNA), directed against the GAST gene: progastrin shRNA, oligonucleotides SEQ ID No 1 and SEQ ID No 2 cloned into pSilencer vector, stably expressed in SW480 cells (nucleic acid)
DNA 1: GAAGAAGCCTATGGATGGATTCAAGAGAAGGTAGGTATCCGAAGAAGTTTTTT
DNA 2: AATTAAAAAACTTCTTCGGATACCTACCTTCTCTTGAATCCATCCATAGGCTTCTTCGGCC
For B1, the “ability to form tumors” value [4] was “greatly reduced”.

B2: recombinant progastrin: full-length progastrin (1-80) prohormone encoded by the GAST gene; recombinant peptide or secreted by CRC cells (protein)
chain: SWKPRSQQPDAPLGTGANRDLELPWLEQQGPASHHRRQLGPQGPPHLVADPSKKQGPWLEEEEEAYGWMDFGRRSAEDEN
In the case of B2, the “β-catenin/Tcf-4 transcriptional activity (TOP/FOP luciferase reporter)” value ([1]; SW480/GAST(−) clones, 5 nM recombinant progastrin, 72 h) is reported as “restore a strong level of transcription”, the ICAT expression ([2]; SW480/GAST(−) cells, 5 nM recombinant progastrin) is reported as “De novo repression” and the “expression of Tcf-4 target genes (c-myc, cyclin D1, Sox-9 and claudin-1)” value [5] is reported as “significantly stimulated”. The “differentiation and apoptosis phenotypes” value ([3]; recombinant progastrin for 48 h) was “reversed”, the “serine 473-phosphorylation of Akt/PKB” value [6] was “reinstated” and the “decrease of expression and activity of ILK” value [7] was “partially reversed”. The “nuclear compartmentation of β-catenin and Tcf-4” value [8] was “partially restored” and the “binding partner of β-catenin (Tcf-4 versus ICAT)” value [9] was “preferentially bound to Tcf-4”.

B3: glycine-extended gastrin17: glycine-extended gastrin, one of the products of progastrin maturation (peptide)
peptide: SWKPRSQQPDAPLGTGANRDLELPWLEQQGPASHHRRQLGPQGPPHLVADPSKKQGPWLEEEEEAYGWMDFGRRSAEDEN
B3 was tested, and the β-catenin/Tcf-4 activity [1, 10] was “did not affect” and the “differentiation and apoptosis phenotypes” value [3, 12] was “had no effect”.
